Molecular target: EcoSSB (Escherichia coli, UniProt P0AGE0)
Test: EMSA; Complex I at low and Complex II at high SSB; 0.2, 2, 10 pmol tetramer, 1 pmol DNA; 20 mM Tris-HCl pH 8.0, 50 mM NaCl, 5% glycerol, 50 μg/ml BSA, 15 μl, 30 min at 4°C; 8% native PAGE in 1x TBE
Settings: protein: recombinant; chain copies: 4; label: 5' 32P; single strand

Sequence of EcoSSB (P0AGE0 whole entry): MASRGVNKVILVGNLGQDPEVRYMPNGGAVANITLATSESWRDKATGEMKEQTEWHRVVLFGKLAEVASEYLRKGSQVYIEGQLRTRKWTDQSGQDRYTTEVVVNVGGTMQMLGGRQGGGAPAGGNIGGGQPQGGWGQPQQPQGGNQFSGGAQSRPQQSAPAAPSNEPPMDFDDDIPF

B1: 79 mer ssDNA (ssDNA)
DNA: GCACTAGTGCGGATAGCCCCGTGTTGTTGTCTGACCCCCGACCCCGACGGCAATGCGGGGCAATCCCCTGGAGGCCTGC
B1: binds.

From paper PMC3983218
